Test results from article PMC10709652, “The separation pin distinguishes the pro– and anti–recombinogenic functions of Saccharomyces cerevisiae Srs2” (Nature Communications, 2023).

What was measured:
[1] = substrate: Nc1ncnc2c1ncn2[C@@H]1O[C@H](COP(=O)(O)OP(=O)(O)OP(=O)(O)O)[C@@H](O)[C@H]1O; experiment: ATP hydrolysis, gamma-32P-ATP, thin layer chromatography; type: biochemical, Saccharomyces cerevisiae; conditions: M13 ssDNA 2.5 µM (nucleotides), 2 mM MgCl2, 100 mM KCl, pH 7.6, 30 °C, 40 nM protein
[2] = substrate: Nc1ncnc2c1ncn2[C@@H]1O[C@H](COP(=O)(O)OP(=O)(O)OP(=O)(O)O)[C@@H](O)[C@H]1O; experiment: as above; type: biochemical, Saccharomyces cerevisiae; conditions: M13 ssDNA 2.5 µM (nucleotides), 2 mM MgCl2, 100 mM KCl, pH 7.6, 30 °C, 40 nM protein; remark: listed apart in the source
Description: ATP hydrolysis, gamma-32P-ATP, thin layer chromatography on Srs2^898 (GFP-Srs2 1-898) | The F68A, P671A, and Y775A mutants were all largely unperturbed with respect to ATP hydrolysis

Protein | Km [1] [µM] | kcat [1] [sec–1] | Km [2] [µM] | kcat [2] [sec–1]
Srs2^898 (GFP-Srs2 1-898) (Saccharomyces cerevisiae S288C; F285A) (protein, residues 1-898 of 1174 (C-terminal 276 residues omitted), N-terminal GFP tag kept, pET15b, Talon purified; expressed in E. coli Rosetta2 (DE3)) MSSNNDLWLHLVSQLNTQQRAAALFDYTRGLQVIAGPGTGKTKVLTSRVAYLILHHHIHPRDIIVTTFTNKAANEMKERLQEMLRGAGVNISELLIGTFHSICLKILYRFGHLVDLQKDWRIIDEKEIDVILDDMIEKVPDQIRDYASSITRKVNLCMPSKNGDEWTIHPKLIKKQISKLKSNAILPEEYILDSNHDAALGYFYQIYQSELSKKNTLDFDDLLMYTFRLLTRVRVLSNIKHVLVDEFQDTNGIQLDLMFLFAKGNHHLSRGMTIVGDPDQSIYAARNALAHNFLEMGRKCPIEYSTIILVENYRSSQKILNTSEILITQQNKGRQNRAPLRAQFDLDFPPVYMNFPAYFLEAPSLVRELLYLKALPNLFTFNDFAILVRQRRQIKRIESALIEHRIPYKIIRGHSFWDSKETRAMLNLLKLIFSPNDKHAILASLLYPARGLGPATGEKIKNALDTLATDVSCFQILKDISSKKIMLDIPTKGRSVIADFISMIENCQLLLQSTLLGGLSDLFDKLYELSGLKYEYLYKDGKKKNDQLEKSEPNLLNARHKNIELLKNYFLALLSKSESSDKEKNEAIKAATDEAEPIENKVITPKEYLRNFFNSLSLHSDAAEEEESESNKDAKIKREKNGFVTISTIHGAKGLEWPVVFIPGCEEGIIPCVFNDDKKDESEEDEEEDQENSKKDASPKKTRVLSVEDSIDEERRMFFVAQTRAKYLLYLSNTVTVEDVDRPRIASRFLTTDLIKAMSDSQKLFESTNSIKKLYRILNKKPPAEDDKLFSLDQLRKDYNQFIENRRERMIWQGIQMNDVYGIQLSRNKLLGSVSDFTSAADQLRLETQNSIFPQKKLIEKSRPSKINGNYAPKSRVKSPEKRYAPETTSFHSPTKKK | 2750 ± 790 | 25 ± 4 | – | –
Srs2^898 (GFP-Srs2 1-898) (Saccharomyces cerevisiae S288C; F68A) (protein, residues 1-898 of 1174 (C-terminal 276 residues omitted), N-terminal GFP tag kept, pET15b, Talon purified; expressed in E. coli Rosetta2 (DE3)) MSSNNDLWLHLVSQLNTQQRAAALFDYTRGLQVIAGPGTGKTKVLTSRVAYLILHHHIHPRDIIVTTATNKAANEMKERLQEMLRGAGVNISELLIGTFHSICLKILYRFGHLVDLQKDWRIIDEKEIDVILDDMIEKVPDQIRDYASSITRKVNLCMPSKNGDEWTIHPKLIKKQISKLKSNAILPEEYILDSNHDAALGYFYQIYQSELSKKNTLDFDDLLMYTFRLLTRVRVLSNIKHVLVDEFQDTNGIQLDLMFLFAKGNHHLSRGMTIVGDPDQSIYAFRNALAHNFLEMGRKCPIEYSTIILVENYRSSQKILNTSEILITQQNKGRQNRAPLRAQFDLDFPPVYMNFPAYFLEAPSLVRELLYLKALPNLFTFNDFAILVRQRRQIKRIESALIEHRIPYKIIRGHSFWDSKETRAMLNLLKLIFSPNDKHAILASLLYPARGLGPATGEKIKNALDTLATDVSCFQILKDISSKKIMLDIPTKGRSVIADFISMIENCQLLLQSTLLGGLSDLFDKLYELSGLKYEYLYKDGKKKNDQLEKSEPNLLNARHKNIELLKNYFLALLSKSESSDKEKNEAIKAATDEAEPIENKVITPKEYLRNFFNSLSLHSDAAEEEESESNKDAKIKREKNGFVTISTIHGAKGLEWPVVFIPGCEEGIIPCVFNDDKKDESEEDEEEDQENSKKDASPKKTRVLSVEDSIDEERRMFFVAQTRAKYLLYLSNTVTVEDVDRPRIASRFLTTDLIKAMSDSQKLFESTNSIKKLYRILNKKPPAEDDKLFSLDQLRKDYNQFIENRRERMIWQGIQMNDVYGIQLSRNKLLGSVSDFTSAADQLRLETQNSIFPQKKLIEKSRPSKINGNYAPKSRVKSPEKRYAPETTSFHSPTKKK | – | – | 1520 ± 710 | 49 ± 8
Srs2^898 (GFP-Srs2 1-898) (Saccharomyces cerevisiae S288C; P671A) (protein, residues 1-898 of 1174 (C-terminal 276 residues omitted), N-terminal GFP tag kept, pET15b, Talon purified; expressed in E. coli Rosetta2 (DE3)) MSSNNDLWLHLVSQLNTQQRAAALFDYTRGLQVIAGPGTGKTKVLTSRVAYLILHHHIHPRDIIVTTFTNKAANEMKERLQEMLRGAGVNISELLIGTFHSICLKILYRFGHLVDLQKDWRIIDEKEIDVILDDMIEKVPDQIRDYASSITRKVNLCMPSKNGDEWTIHPKLIKKQISKLKSNAILPEEYILDSNHDAALGYFYQIYQSELSKKNTLDFDDLLMYTFRLLTRVRVLSNIKHVLVDEFQDTNGIQLDLMFLFAKGNHHLSRGMTIVGDPDQSIYAFRNALAHNFLEMGRKCPIEYSTIILVENYRSSQKILNTSEILITQQNKGRQNRAPLRAQFDLDFPPVYMNFPAYFLEAPSLVRELLYLKALPNLFTFNDFAILVRQRRQIKRIESALIEHRIPYKIIRGHSFWDSKETRAMLNLLKLIFSPNDKHAILASLLYPARGLGPATGEKIKNALDTLATDVSCFQILKDISSKKIMLDIPTKGRSVIADFISMIENCQLLLQSTLLGGLSDLFDKLYELSGLKYEYLYKDGKKKNDQLEKSEPNLLNARHKNIELLKNYFLALLSKSESSDKEKNEAIKAATDEAEPIENKVITPKEYLRNFFNSLSLHSDAAEEEESESNKDAKIKREKNGFVTISTIHGAKGLEWPVVFIPGCEEGIIACVFNDDKKDESEEDEEEDQENSKKDASPKKTRVLSVEDSIDEERRMFFVAQTRAKYLLYLSNTVTVEDVDRPRIASRFLTTDLIKAMSDSQKLFESTNSIKKLYRILNKKPPAEDDKLFSLDQLRKDYNQFIENRRERMIWQGIQMNDVYGIQLSRNKLLGSVSDFTSAADQLRLETQNSIFPQKKLIEKSRPSKINGNYAPKSRVKSPEKRYAPETTSFHSPTKKK | – | – | 1590 ± 720 | 50 ± 7
Srs2^898 (GFP-Srs2 1-898) (Saccharomyces cerevisiae S288C; Y775A) (protein, residues 1-898 of 1174 (C-terminal 276 residues omitted), N-terminal GFP tag kept, pET15b, Talon purified; expressed in E. coli Rosetta2 (DE3)) MSSNNDLWLHLVSQLNTQQRAAALFDYTRGLQVIAGPGTGKTKVLTSRVAYLILHHHIHPRDIIVTTFTNKAANEMKERLQEMLRGAGVNISELLIGTFHSICLKILYRFGHLVDLQKDWRIIDEKEIDVILDDMIEKVPDQIRDYASSITRKVNLCMPSKNGDEWTIHPKLIKKQISKLKSNAILPEEYILDSNHDAALGYFYQIYQSELSKKNTLDFDDLLMYTFRLLTRVRVLSNIKHVLVDEFQDTNGIQLDLMFLFAKGNHHLSRGMTIVGDPDQSIYAFRNALAHNFLEMGRKCPIEYSTIILVENYRSSQKILNTSEILITQQNKGRQNRAPLRAQFDLDFPPVYMNFPAYFLEAPSLVRELLYLKALPNLFTFNDFAILVRQRRQIKRIESALIEHRIPYKIIRGHSFWDSKETRAMLNLLKLIFSPNDKHAILASLLYPARGLGPATGEKIKNALDTLATDVSCFQILKDISSKKIMLDIPTKGRSVIADFISMIENCQLLLQSTLLGGLSDLFDKLYELSGLKYEYLYKDGKKKNDQLEKSEPNLLNARHKNIELLKNYFLALLSKSESSDKEKNEAIKAATDEAEPIENKVITPKEYLRNFFNSLSLHSDAAEEEESESNKDAKIKREKNGFVTISTIHGAKGLEWPVVFIPGCEEGIIPCVFNDDKKDESEEDEEEDQENSKKDASPKKTRVLSVEDSIDEERRMFFVAQTRAKYLLYLSNTVTVEDVDRPRIASRFLTTDLIKAMSDSQKLFESTNSIKKLARILNKKPPAEDDKLFSLDQLRKDYNQFIENRRERMIWQGIQMNDVYGIQLSRNKLLGSVSDFTSAADQLRLETQNSIFPQKKLIEKSRPSKINGNYAPKSRVKSPEKRYAPETTSFHSPTKKK | – | – | 1610 ± 740 | 51 ± 8
Srs2^898 (GFP-Srs2 1-898) (Saccharomyces cerevisiae S288C; H650A) (protein, residues 1-898 of 1174 (C-terminal 276 residues omitted), N-terminal GFP tag kept, pET15b, Talon purified; expressed in E. coli Rosetta2 (DE3)) MSSNNDLWLHLVSQLNTQQRAAALFDYTRGLQVIAGPGTGKTKVLTSRVAYLILHHHIHPRDIIVTTFTNKAANEMKERLQEMLRGAGVNISELLIGTFHSICLKILYRFGHLVDLQKDWRIIDEKEIDVILDDMIEKVPDQIRDYASSITRKVNLCMPSKNGDEWTIHPKLIKKQISKLKSNAILPEEYILDSNHDAALGYFYQIYQSELSKKNTLDFDDLLMYTFRLLTRVRVLSNIKHVLVDEFQDTNGIQLDLMFLFAKGNHHLSRGMTIVGDPDQSIYAFRNALAHNFLEMGRKCPIEYSTIILVENYRSSQKILNTSEILITQQNKGRQNRAPLRAQFDLDFPPVYMNFPAYFLEAPSLVRELLYLKALPNLFTFNDFAILVRQRRQIKRIESALIEHRIPYKIIRGHSFWDSKETRAMLNLLKLIFSPNDKHAILASLLYPARGLGPATGEKIKNALDTLATDVSCFQILKDISSKKIMLDIPTKGRSVIADFISMIENCQLLLQSTLLGGLSDLFDKLYELSGLKYEYLYKDGKKKNDQLEKSEPNLLNARHKNIELLKNYFLALLSKSESSDKEKNEAIKAATDEAEPIENKVITPKEYLRNFFNSLSLHSDAAEEEESESNKDAKIKREKNGFVTISTIAGAKGLEWPVVFIPGCEEGIIPCVFNDDKKDESEEDEEEDQENSKKDASPKKTRVLSVEDSIDEERRMFFVAQTRAKYLLYLSNTVTVEDVDRPRIASRFLTTDLIKAMSDSQKLFESTNSIKKLYRILNKKPPAEDDKLFSLDQLRKDYNQFIENRRERMIWQGIQMNDVYGIQLSRNKLLGSVSDFTSAADQLRLETQNSIFPQKKLIEKSRPSKINGNYAPKSRVKSPEKRYAPETTSFHSPTKKK | 2910 ± 780 | 15 ± 2 | – | –
